Experimental data from US20220313780A1, “METHODS AND COMPOSITIONS FOR TREATING INFLAMMATORY CONDITIONS” (THE SCRIPPS RESEARCH INSTITUTE, priority 2019, published 2022).

Assays:
PAR1 = target: T1, PAR1 (Homo sapiens, UniProt P25116); assay: Caspase 1 activity assay in THP1 cells after inhibition of PAR1 (WEDE15, ATAP2, SCH79797); format: cell-based; conditions: TR47 50 μM or P3R 50 μM; for effect of PAR1 blocking antibody ATAP2 on reduction of caspase 1 activity: ATAP2 10 μg/mL for 15 minutes before APC 4 μg/mL; for effect of PAR1 small molecule antagonist SCH79797 on reduction of caspase 1 activity: SCH79797 20 μM for 20 minutes before APC 4 μg/mL; for effect of PAR1 blocking antibody WEDE15 on reduction of caspase 1 activity: WEDE15 20 μg/mL for 15 minutes before APC 4 μg/mL
T1 construct: endogenous in cells; host or cells: THP1-null (wildtype) cells, PMA-differentiated
T1 sequence (P25116 22-425): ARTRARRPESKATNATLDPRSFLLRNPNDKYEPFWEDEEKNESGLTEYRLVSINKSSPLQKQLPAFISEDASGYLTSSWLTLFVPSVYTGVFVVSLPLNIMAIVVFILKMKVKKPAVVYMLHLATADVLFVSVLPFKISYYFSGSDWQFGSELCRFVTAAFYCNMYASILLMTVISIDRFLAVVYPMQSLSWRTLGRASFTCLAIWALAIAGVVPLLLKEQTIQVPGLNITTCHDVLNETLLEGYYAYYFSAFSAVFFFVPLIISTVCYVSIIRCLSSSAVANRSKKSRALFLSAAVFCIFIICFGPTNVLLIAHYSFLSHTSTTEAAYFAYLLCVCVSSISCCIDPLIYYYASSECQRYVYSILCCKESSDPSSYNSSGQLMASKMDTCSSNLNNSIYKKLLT
Procedure: THP1 or (A) NLRP3 deficient cells (THP1-defNLRP3) cells were plated at a final concentration of 1×10^6/mL in 96 well plates and incubated with PMA (0.5 μM) for 3 hours 37° C. in supplemented RPMI. Media was subsequently changed every 24 hours for 3 days. In brief, selected wells were treated with APC (4 μg/mL), TR47 (50 μM) or P3R (50 μM) for 1 hour, washed with DPBS, and incubated with LPS (1 μg/mL) for 3 hours at 37° C. in serum-free RPMI. After a DPBS wash, cells were incubated with ATP (5 mM) in the presence or absence of 10 μM YVAD (caspase 1 inhibitor) or 2.5 μM ZVAD (pan-caspase inhibitor) for 45 minutes at 37° C. In (B), after PMA differentiation, select wells were treated with APC (4 μg/mL), TR47 (50 μM) or P3R (50 μM) for 1 hour, washed with DPBS, and incubated with LPS (1 μg/mL) for 3 hours at 37° C. in serum-free RPMI. Cells were washed with DPBS before being treated with the NLRP3 inhibitor MCC950 (10 μM) or DMSO for 30 minutes. Again, cells were washed with DPBS and incubated with ATP (5 mM) in the presence or absence of 10 μM YVAD (caspase 1 inhibitor) or 2.5 μM ZVAD (pan-caspase inhibitor) for 45 minutes prior to performing the caspase 1 activity following manufacturer's directions measuring luminescence. In (C-F) prior to APC, TR47 or P3R treatment, cells were incubated with antibodies or inhibitors. In (C) cell were incubated with the blocking EPCR antibody, RCR-252 (50 μg/mL); (D) mouse monoclonal antibody to PAR3, clone 19b (clonel9b; 25 μg/mL) for 30 minutes. In (E) cells were treated with either mouse monoclonal antibodies to PAR1, WEDE15 (20 μg/mL) or ATAP2 (10 μg/mL) for 15 minutes. In (F) cells were treated with the small molecule PAR1 inhibitor, SCH79797 (SCH; 20 μM) for 20 minutes. Following antibody or small molecule treatments (C-F) selected wells were treated with APC (4 μg/mL), TR47 (50 μM) or P3R (50 μM) for 1 hour, washed with DPBS, and incubated with LPS (1 μg/mL) for 3 hours at 37° C. in serum-free RPMI. After a DPBS wash, cells were incubated with ATP (5 mM) in the presence or absence of 10 μM YVAD (caspase 1 inhibitor) or 2.5 μM ZVAD (pan-caspase inhibitor) for 45 minutes at 37° C., prior to performing the caspase 1 activity assay following manufacturer's directions measuring luminescence (relative luminescent units, RLU). (A-F) Data points represent mean±SD of at least 3 independent experiments. *P<0.05 (vs. LPS+ATP); #P<0.05 (vs. LPS+ATP & APC, TR47 or P3R); ##P<0.005 (vs. LPS+ATP & APC, TR47 or P3R); n.s. not significant.
Caspase 1 assay. THP1-null (wildtype cells) or NLRP3-deficient THP1-(defNLRP3) cells were plated at a final concentration of 1×10^6/mL in 96 well plates and incubated with PMA (0.5 μM) for 3 hours 37° C. in supplemented RPMI. Media was subsequently changed every 24 hours for 3 days. Various subsets of wells were selected and cells were treated for 60 minutes at 37° C. in serum-free RPMI with various concentrations of APC, TR47 or P3R. Following DPBS wash, cells were incubated with LPS (lipopolysaccharide) (1 μg/mL) for 3 hours at 37° C. in serum-free RPMI to prime the inflammasome. After a DPBS wash, to fully activate caspase 1 activity, cells were incubated with ATP (5 mM), in the presence or absence of 10 μM YVAD (caspase 1 inhibitor), and 2.5 μM ZVAD (pan-caspase inhibitor) for 45 minutes at 37° C., prior to performing the caspase 1 activity assay following the manufacturer's (Promega) directions; caspase 1 activity was monitored as luminescence changes due to substrate hydrolysis and reported as relative luminescent units (RLU).^15 In select experiments, caspase 1 activity of experimental conditions were normalized to YVAD (caspase 1 inhibitor) conditions and expressed as normalized caspase 1 activity.

PAR3 = target: T2, PAR3 (Homo sapiens, UniProt O00254); assay: Caspase 1 activity assay in THP1 cells after blocking PAR3 with monoclonal antibody clone 19b; format: cell-based; conditions: clone 19b 25 μg/mL for 30 minutes before APC 4 μg/mL, TR47 50 μM or P3R 50 μM
T2 construct: mouse monoclonal antibody to PAR3, clone 19b (clonel9b; 25 μg/mL) for 30 minutes; endogenous in cells; host or cells: THP1-null (wildtype) cells, PMA-differentiated
T2 sequence (O00254 22-374): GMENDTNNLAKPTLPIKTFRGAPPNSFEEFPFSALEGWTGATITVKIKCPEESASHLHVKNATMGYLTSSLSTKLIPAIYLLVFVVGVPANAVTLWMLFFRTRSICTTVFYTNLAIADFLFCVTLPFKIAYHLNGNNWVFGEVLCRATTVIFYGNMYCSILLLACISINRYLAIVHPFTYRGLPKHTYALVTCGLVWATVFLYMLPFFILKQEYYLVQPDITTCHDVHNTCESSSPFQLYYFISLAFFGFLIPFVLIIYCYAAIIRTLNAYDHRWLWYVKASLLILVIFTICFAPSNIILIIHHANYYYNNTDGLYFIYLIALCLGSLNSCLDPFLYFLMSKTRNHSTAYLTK
Procedure: THP1 or (A) NLRP3 deficient cells (THP1-defNLRP3) cells were plated at a final concentration of 1×10^6/mL in 96 well plates and incubated with PMA (0.5 μM) for 3 hours 37° C. in supplemented RPMI. Media was subsequently changed every 24 hours for 3 days. In brief, selected wells were treated with APC (4 μg/mL), TR47 (50 μM) or P3R (50 μM) for 1 hour, washed with DPBS, and incubated with LPS (1 μg/mL) for 3 hours at 37° C. in serum-free RPMI. After a DPBS wash, cells were incubated with ATP (5 mM) in the presence or absence of 10 μM YVAD (caspase 1 inhibitor) or 2.5 μM ZVAD (pan-caspase inhibitor) for 45 minutes at 37° C. […] Again, cells were washed with DPBS and incubated with ATP (5 mM) in the presence or absence of 10 μM YVAD (caspase 1 inhibitor) or 2.5 μM ZVAD (pan-caspase inhibitor) for 45 minutes prior to performing the caspase 1 activity following manufacturer's directions measuring luminescence. […] After a DPBS wash, cells were incubated with ATP (5 mM) in the presence or absence of 10 μM YVAD (caspase 1 inhibitor) or 2.5 μM ZVAD (pan-caspase inhibitor) for 45 minutes at 37° C., prior to performing the caspase 1 activity assay following manufacturer's directions measuring luminescence (relative luminescent units, RLU). […]

Sequence	effect of PAR1 blocking antibody ATAP2 on reduction of caspase 1 activity (PAR1)	effect of PAR1 small molecule antagonist SCH79797 on reduction of caspase 1 activity (PAR1)	effect of PAR1 blocking antibody WEDE15 on reduction of caspase 1 activity (PAR1)	effect of blocking PAR3 on anti-inflammatory activity (caspase 1) (PAR3)
GAPPNSFEEFPFSALEGWTGATIT [P3R, PAR3-derived 24-mer peptide]	None of the PAR1-targeted inhibitors statistically significantly reduced the anti-inflammatory activity	None of the PAR1-targeted inhibitors statistically significantly reduced the anti-inflammatory activity	None of the PAR1-targeted inhibitors statistically significantly reduced the anti-inflammatory activity	very significantly reduced the anti-inflammatory activity
NPNDKYEPFWEDEEKNESGL [TR47, PAR1-derived 20 amino acid peptide]	not by ATAP2	inhibited by SCH79797 and WEDE15	inhibited by SCH79797 and WEDE15	less significantly reduced the activity
